In the supplement of paper PMC10724198:
± gives the standard deviation of the averaged measurements.

Tested on: Saccharomyces cerevisiae
Experiment: protein stability index of tFT-peptide fusion (C-terminal peptide) (PSI (0-1 scale)); higher = more stable (slower turnover)
Conditions: genetic background: wild type; temperature: 30 C
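Note: PSI is a weighted mean of sequencing reads over stability bins, variants kept only with over 10 reads, mCherry proximal and sfGFP distal, peptide attached via GGGS linker.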

Point of comparison: GVLKQGSLPCRD, protein stability index 0.706 ± 0.14. Against it:
- PPPPPASPPSAP — within error, 0.605 ± 0.063
- TYVSKCRLYEPA — within error, 0.644 ± 0.011
- KRPVTPTFGRLQ — within error, 0.645 ± 0.067
- VITCGLVLRSVR — within error, 0.652 ± 0.031
- HRKNKYKRKTTK — within error, 0.676 ± 0.05
- PRGYSASPNLTS — within error, 0.716 ± 0.023
- RTPLPPPRPSTY — within error, 0.719 ± 0.049
- PHDPHNTATNQG — within error, 0.721 ± 0.016
- FLLKKVLCINWQ — lower, 0.545 ± 0.0028
- FCSPPTLPPSPS — within error, 0.732 ± 0.024
- DIAYPRITDSRC — within error, 0.714 ± 0.045
- EIDMLVVRNLKH — within error, 0.664 ± 0.044
- VTHSASFSDVFR — within error, 0.731 ± 0.034
- CFMGCAKRVTLI — within error, 0.561 ± 0.039
- VWTPWSTKDCLG — within error, 0.721 ± 0.054
- LPSPRRPPTPSA — within error, 0.657 ± 0.015
- QMRRRGARRAKP — within error, 0.743 ± 0.027
- ADPPLFYPPSHT — within error, 0.69 ± 0.021
- PPACPYPFRPLP — within error, 0.668 ± 0.025
- CTFCLGSATVRT — within error, 0.702 ± 0.04
- VPSLAVPPEGSV — within error, 0.678 ± 0.06
- PHLTTPATPVLL — within error, 0.716 ± 0.023
- PPPLDSPPPPPP — within error, 0.664 ± 0.019
- PPPPAPPLPPPP — within error, 0.707 ± 0.039
- LSPTRPATRSPP — within error, 0.6826 ± 0.0014
- PPCAPPPSPLAC — within error, 0.684 ± 0.043
- RCVGWRRTPESS — within error, 0.739 ± 0.064
- RQYARKKKKVRN — within error, 0.683 ± 0.025
- WFLFIPLACLRP — within error, 0.592 ± 0.0079
- FCPPMPSVIALH — within error, 0.649 ± 0.024
- RPAESPPAFYNR — within error, 0.774 ± 0.062
- LSVLHATFGRCD — within error, 0.645 ± 0.017
- PPPRRPPSPPSP — within error, 0.729 ± 0.021
- GAPLFTYVIVRR — within error, 0.621 ± 0.07
- ASLPPPFTMLLL — within error, 0.686 ± 0.051
- SGAGVGGQVAVG — within error, 0.717 ± 0.061
- TLSPPPALASPL — within error, 0.71 ± 0.037
- VLRRCGRERGIF — within error, 0.688 ± 0.034
- WMAFRRIPTWSG — within error, 0.679 ± 0.073
- LLGLVGGVVGLA — within error, 0.624 ± 0.01
- LLSLVYSPLSPL — within error, 0.664 ± 0.035
- YWPPIRSILPQY — within error, 0.67 ± 0.033
- RQHYFDVLGEMY — within error, 0.7113 ± 0.0027
- PPLPSMVLQRIY — within error, 0.589 ± 0.0065
- CGEWSWAGVGVR — within error, 0.702 ± 0.032
- RKLAEVNCTVKV — within error, 0.664 ± 0.036
- MTWQSASGNRVA — within error, 0.699 ± 0.056
- LVCYHLSLPSVR — within error, 0.675 ± 0.052
- PPPHPALPHPLH — within error, 0.682 ± 0.01
- VALHRIPVTVSR — within error, 0.578 ± 0.026
- GRSLGTPRYHPG — within error, 0.713 ± 0.016
- RRWWDHGCSGAG — within error, 0.672 ± 0.061
- NIKNQEVKTHDT — within error, 0.6796 ± 0.0054
- GQVSVGAVGSFE — within error, 0.642 ± 0.097
- GAWWVHGRRVGR — within error, 0.738 ± 0.046
- GLSSVVWSGGLC — within error, 0.6222 ± 0.0047
- RVDTRKQNKNSM — within error, 0.693 ± 0.019
- TGLYWGQIPYSQ — within error, 0.687 ± 0.062
- SVDPIFLNSGLG — within error, 0.693 ± 0.045
- KRGRISKKRDSS — within error, 0.759 ± 0.017
- RGLGGWAECGRW — within error, 0.76 ± 0.05
- KRDNKNKDKQKK — within error, 0.7 ± 0.024
- SPPPGPAPPMSP — within error, 0.731 ± 0.03
- TCTGAKHRCHVL — within error, 0.677 ± 0.011
- ADWGSRRPSRCP — within error, 0.68915 ± 0.00051
- RSCPILLLSFPL — within error, 0.62297 ± 0.00052
- SHGQAPFNVLVA — within error, 0.596 ± 0.025
- CEPPRPGLLPLF — within error, 0.724 ± 0.016
- PVLGRTLAFRSL — within error, 0.659 ± 0.057
- GVWGGGGGWGVA — within error, 0.688 ± 0.0096
- WTFEYRNHKMKK — within error, 0.7149 ± 0.0071
- PLPYSPPLHVYP — within error, 0.691 ± 0.023
- PPPSPDPPLTPF — within error, 0.723 ± 0.06
- DFEVGPMGGFRC — within error, 0.674 ± 0.057
- LKNGDINYARFG — within error, 0.679 ± 0.083
- VSYEFHTRVSKN — within error, 0.677 ± 0.039
- AREVGGRAGRRE — within error, 0.661 ± 0.012
- LPHSPSLPPAFP — within error, 0.708 ± 0.032
- IPGVPEGLRSLH — within error, 0.629 ± 0.06
- LVVSLSYSFRSV — within error, 0.585 ± 0.045
- SRGMRNPLSADR — within error, 0.645 ± 0.098
- LFLVWSLGSGRN — within error, 0.672 ± 0.098
- PPPPPPSLPYLL — within error, 0.771 ± 0.042
- YRPPFPAALFSE — within error, 0.6962 ± 0.0034
- KKHEKVKSNTKR — within error, 0.666 ± 0.03
- RTKNMRRIKEKG — within error, 0.688 ± 0.046
- SFWNLFAGWYVI — within error, 0.685 ± 0.03
- PPPPPLPTPPPS — within error, 0.653 ± 0.036
- PSSPIFPFSSLP — within error, 0.599 ± 0.15
- ASVVEVSSLSLL — within error, 0.629 ± 0.052
- PLSPLVPVRTRP — within error, 0.682 ± 0.072
- KKSQKSKNKTHN — within error, 0.571 ± 0.0066
- CSRFGRLCYNGE — within error, 0.618 ± 0.023
- AHMAQQNEQRVK — within error, 0.748 ± 0.071
- RRRGEGRREKDR — within error, 0.677 ± 0.12
- PRPRPSPLPPPS — within error, 0.751 ± 0.13
- MNVHGHERLRPS — within error, 0.678 ± 0.066
- PRPPANILPSAP — within error, 0.713 ± 0.07
- PLSPPPPPPLPA — within error, 0.71 ± 0.011
- RLTLTAKDNEGC — within error, 0.733 ± 0.1
